Results on four substances are retold here after US20100209422A1.

The target of assay [1] is protofibrillar (PF) form of Aβ42 (human). The experiment in a line: SPR (BIAcore), ratio of PF binding to LMW binding.
Assay [2] has the same target. The experiment in a line: SPR (BIAcore), antibody immobilized, PF Aβ42 injected.
Assay [3] concerns the target low-molecular weight (LMW) form of Aβ42 (human). The experiment in a line: SPR (BIAcore), antibody immobilized, LMW Aβ42 injected. For orientation: In SPR one partner is held on a chip, and binding of the other changes the refractive index at the surface.

protofibrillar (PF) form of Aβ42 (human), sequence (peptide, as listed by the source): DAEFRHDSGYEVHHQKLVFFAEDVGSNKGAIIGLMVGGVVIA
low-molecular weight (LMW) form of Aβ42 (human), sequence (peptide, as listed by the source): as above

Take 3D6 anti-Aβ antibody: the Ratio (PF/LMW) in assay [1] was 0.9. Also, the BIACORE Binding Analysis PF in assay [2] was determined as 403. The BIACORE Binding Analysis LMW in assay [3] was found to be 425.

On to 82E1 (antibody), for which the Ratio (PF/LMW) in assay [1] is 1. In assay [2], this substance showed a BIACORE Binding Analysis PF of 68.4. Also, the BIACORE Binding Analysis LMW in assay [3] stood at 69.9.

monoclonal antibody 4G8: the Ratio (PF/LMW) in assay [1] was determined as 1.5. In assay [2], this substance displayed a BIACORE Binding Analysis PF of 340. Also, the BIACORE Binding Analysis LMW in assay [3] is 229.

As for 6E10 (antibody), the Ratio (PF/LMW) in assay [1] amounted to 1.4. This substance also yielded a BIACORE Binding Analysis PF in assay [2] of 541. This substance also had a BIACORE Binding Analysis LMW in assay [3] of 400.
